Biological target: purified SARS-CoV-2 RBD (limits of the construct not stated) (SARS-CoV-2, UniProt P0DTC2 331-550)
Test: told in the legend of the ELISA figure (Fig. 38)

B1: S309-14 (S309 with VH W105F mutation) (antibody, V domains shown)
VH: not shown
VL: EIVLTQSPGTLSLSPGERATLSCRASQTVSSTSLAWYQQKPGQAPRLLIYGASSRATGIPDRFSGSGSGTDFTLTISRLEPEDFAVYYCQQHDTSLTFGGGTKVEIK
binding result: binds

From CN116745314A (VIR BIOTECHNOLOGY CO LTD, dated 2023)
